Drawing on publication PMC3526285, this text covers Kd for two substances.

This data set has as its system TRMT10C (MRPP1, RG9MTD1) (Homo sapiens). Nature of the data set: EMSA. Conditions: apparent Kd; EMSA: 1 nM 5'-labelled pre-tRNA, 10 nM-1.2 uM protein, methylation/processing buffer (composition not in material) + 100 mM sucrose, 30 min at room …. On the technique in general: In EMSA bound probe runs differently from free probe, usually more slowly.

Consider (mt)pre-tRNAIle, for which the Kd worked out at 255 nM.

Consider (mt)pre-tRNAHis, for which the Kd was 203 nM.
